Laboratory results reported in patent US9725702B2, “Laccase from ganoderma lucidum capable of enhancing enzymatic degradation of lignocellulolytic biomass” (DANMARKS TEKNISKE UNIVERSITET, priority 2012, dated 2017).

How the values were obtained:
[1] = Substrate specificity of laccase (relative rate of product formation); format: biochemical
Procedure: The laccase activity was measured based on a modified method of Ters et al. (2009). The laccase activity was defined as the amount of the enzyme required to oxidise 1 μmol of ABTS per minute at 25° C., and pH 4.7. The assay mixture contained: 0.1 M citrate-phosphate buffer (255 μL, pH 4.7), ABTS (5 μL, 4 mM (ABTS stock solution)), and pre-diluted laccase (5 μL) that ensured the linear range of Michaelis-Menten kinetics. The oxidation of ABTS was monitored at 420 nm (ε420=36800 M^−1cm^−1) for 2 min. in an Infinite 200 microtiter plate reader (Tecan, Salzburg, Austria). Laccase activity assays on the substrates: hydroquinone (248 nm), 2.6-dimethoxyphenol (470 nm), and guaiacol (436 nm) was done similarly with the substrate concentration as described in Table 2 using the following extinction coefficient values: 17.542 M^−1cm^−1, 35.645 M^−1cm^−1, and 6.400 M^−1cm^−1, respectively (Minussi et al. 2007). The data collection was monitored by the program Tecan i-control version 1.5.14.0 (Tecan, Salzburg, Austria). The calculated laccase activity was corrected by the absorbance of a control sample which contained: 0.1 M citrate-phosphate buffer (255 μL, pH 4.7), ABTS (5 μL, 4 mM), and 5 μL of distilled water instead of the enzyme. All determinations of the laccase activity were performed in duplicates, with an average sample standard deviation less than 5%.
LacGL1 laccase was able to oxidize both ABTS and other phenolic compounds (Table 5) such as: hydroquinone, guaiacol, and 2.6-dimethoxyphenol, however in a slower rate than for ABTS.

[2] = Laccase-cellulase catalyzed hydrolysis of pretreated biomass, glucose release; format: biochemical; settings: with cellulase 1 or 2, pH 5.1, 50° C., 30 hour
Procedure: FIG. 13. A graphical comparison of glucose released over time during hydrolysis of STEX-SCB at pH 5.1 and 50° C. by each of commercial enzyme preparations Cellulase 1 (CC2) [A]; or Cellulase 2 [B], either alone, or in combination with a laccase enzyme; the tested laccases being respectively LacGL1 and GLlac1 (LacJooSS; Q9HG17) derived from G. lucidum; and laccases derived from Agaricus bisporus (Sigma 40452), Pleurotus ostreatus (Sigma 75117) and, Trametes versicolor (Sigma 51639).
The commercial fungal laccases were purchased as lyophilized protein samples from Sigma Aldrich. A solution of each of the above 5 laccases was prepared in a citric buffer containing 20% of glycerol (pH 5.1, 100 mM).
Two different commercially available cellulase enzyme preparations used in the comparative study were “Cellulase 1” and “Cellulase 2”, which were tested in combination with each of the laccases listed above.
The three different types of pretreated biomass used in the comparative study were sugarcane bagasse, barley straw and wheat straw. The source and pre-treatment of the sugarcane bagasse by steam explosion was as set out in Example 9. […] The composition of the dry and the pretreated biomass were determined according to the US National Renewable Energy Laboratory (NREL) procedures (Sluiter et al, 2010).
The laccase-cellulase catalyzed hydrolysis of the pretreated biomass samples to release glucose was performed as follows: Hydrolysis of 5% (w/v) samples of pretreated sugarcane bagasse, barley straw, and wheat straw biomass were assayed using an Enzyme/Substrate (E/S) ratio of 0.064% w/w for laccases and of 0.4% w/w for each commercial cellulase preparation in each hydrolysis reaction. The E/S dosage was based on the total protein concentration used, as determined using Pierce BCA (BiCinchoninic Acid) protein assay kit microplate procedure according to manufacturer's instruction (Thermo Fisher Scientific, Rockford, US). […]
Laccase and cellulase-mediated hydrolysis of the 3 biomass forms, measured as glucose release, are shown graphically in FIGS. 13, 14 and 15. […]

[3] = Temperature stability of LacGL1 laccase at pH 4.7; format: physicochemical; settings: for activity retained: pH 4.7
Procedure: FIG. 9. The temperature stability profile of LacGL1 laccase as a function of LN [U/mL] vs. incubation time at pH 4.7 and 0.1 M citrate-phosphate buffer. […] The relative difference between single measurements was <5%.
FIG. 10. LacGL1 laccase stability evolution plot at optimum pH of 4.7 and two different temperature values (40° C. and 50° C.). Since the plot is a continuation of temperature stability plot (FIG. 9), the first measurement is given after 1 h. Laccase residual activity [%] is calculated based on activity value of laccase measured at pH 4.7 and 25° C. The relative difference between single measurements was <5%.
The predicted optimal conditions for the LacGL1 laccase activity were validated by measuring the effect of temperature on the relative activity of LacGL1 laccase at pH 4.7. […] (FIG. 10).

B1: LacGL1: Fungal laccase from Ganoderma lucidum CBS229.93 (SEQ ID NO: 5/9), recombinantly expressed in Pichia pastoris X-33 (protein, listed as Ganoderma lucidum)
chain: GIGPKTDLTISNADVAPDGYTRAAVVVNGVFPAPLITGNKGDRFQLNVIDQMTNHTMLKSTSIHWHGFFQKGTNWADGPAFINQCPISSGHSFLYDFQVPDQAGTFWYHSHLSTQYCDGLRGPFVVYDPKDPLKKLYDIDDDSTVITLTDWYHVAARLGPRFPLGSDSTLINGLGRSTTNVTADLAVINVTQGKRYRFRLVSLSCDPNYTFSIDDHNMTVIEADGIETQPVTVNAIQIFSAQRYSFVLTANQTIDNYWIRANPNFGNVGFTDGINSAILRYAGADPVEPTTSQQTTQNLLNEVDLHPFVPKRTPGQPTQGGVDTAINMVFNFNGSNFFINNASFVPPTVPVLLQILSGAQAAQDLLPSGSVYTLPVNKSIELTFPATANAPGAPHPFHLHGHAFAVVRSAGSTVYNYDNPVWRDVVSTGTPAAGDNVTIRFQTDNPGPWFLHCHIDFHLEAGFAVVFAEDPTDTSLANPVPKAWSDLCPTYDALSVDDQ
modifications: mat_peptide (1)..(499) Mature LacGL1 laccase (minus signal peptide)
Laccase relative rate of product formation ([1]; substrate 2.6-Dimethoxyphenol 1 mM): 61% | Laccase relative rate of product formation ([1]; substrate ABTS 1 mM): 100% | Laccase relative rate of product formation ([1]; substrate Guaiacol 1 mM): 66% | Laccase relative rate of product formation ([1]; substrate Hydroquinone 1 mM): 80% | glucose release compared to GLlac1 [2]: the same | glucose release compared to the other tested laccases ([2]; p<0.05): significantly enhanced | change of activity ([3]; 25, 40 and 50° C., pH 4.7, within an hour): did not change significantly | laccase activity remaining ([3]; 60° C., pH 4.7, within an hour): 19% | laccase activity remaining ([3]; 70° C., pH 4.7, within an hour): 3% | activity retained ([3]; after 5 h at 50° C.): 23% | activity retained ([3]; after 24 h at 40° C.): 33%
